Laboratory results: PMC4232355

Target: recombinant integrin αvβ3 (UniProt P06756)
Experiment: ELISA; integrin competitive binding assay: wells coated with 0.05 µg/well recombinant integrin αvβ3; 5 nM biotinylated-GRGDS with or without various peptides (20 nM) or serially diluted cyclic-(GRGDSP), 3 hr at room temperature, binding buffer with 1 mM MnCl2; bound biotinylated-GRGDS detected with streptavidin-HRP polymer

inhibitory activity of 20 nM peptide, as the equal concentration of cyclic-(GRGDSP) [nM]	inhibitory activity of 20 nM peptide, percent of that of 20 nM cyclic-(GRGDSP) [%]	Binder
5.27	26.5	SDESDTNSESANESGSRGDA [C-opened RGD]
3.3	16.5	SRGDASYTSDESSDDDNDSDSH [N-opened RGD]
